# Measured values reported in the nanobody polyreactivity screen of Harvey et al. (2022).
# Assay: yeast display, Sf9 membrane polyspecificity reagent, FACS + sequencing; frameworks hold sequencing errors
# Procedure, shortened: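 Synthetic nanobody libraries on Saccharomyces cerevisiae BJ5465 were galactose-induced for 36–48 hours, stained 1 hour at 4 °C with 10% biotinylated, detergent-solubilized Sf9 membrane reagent and enriched on streptavidin microbeads. FACS then separated cells into low and high (top ~1%) gates by anti-HA (expression) and streptavidin (reagent binding) fluorescence. Genes were colony-PCR amplified, MiSeq 2 × 250 sequenced and CDR-length filtered. A clone's polyreactivity label is that of its gate of origin.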
row,Sequence,polyreactivity (PSR sort gate)
1,QVQLVESGGGLVQAGGSLRLSCASSGSIFYRNTMGWYRQAPGKEREFVAAIRTSGGSTYYADSVKGRFTISRDNAKNTVYLQMNSLKPEDTAVYYCAAEYRYGWAYRKGGDYWGQGTQVTVSS,high polyreactivity
2,QVQLVESGVGLVQAGGSLRLSCAASGRIFTSNAMGWYRQAPGKERELVAAIHRGGSTYYADSVKGRFTISRDNAKNTVYLQMNSLKPEDTAVYYCNAYRKSARSGGHYDYWGQGTQVTVSS,low polyreactivity
3,QVKLVESGGGLVQAGGSLLLSCAASGRTFYRYAMGWYIQAPGKERELVARISSGGGTYYADSVKGRFTISRDNAKNTVYLQMNSLKPEVTAVYYCNADVYRWSGSYTGWDSWHDYWGQGTQVSVSS,low polyreactivity
4,QVQLVESGGGLFQAGGSLRLSCAASGRIFQGYVMGRYRQAPGKERELVAVISRRGGITNYADSVKGRFTISSDNAKNSVYLQIYRLKPEDTAVYYCNSVTRVYNNGQYGYWGQGTQVTVSS,high polyreactivity
5,QVQLVESGGGLVQAGGSLRLSCASSGGTFTAYAMGWYSQAPGKERELVAAITTNGGRTYYADSVKGRFTISRDNAKNTVYLQMNSLKPEDTAVDYCNRVSLSRRWFLYDYWGQGTQVTVSS,high polyreactivity
6,QVQIVESGGGLVQAGGSLRLSCAASGRIFDGYAMGWYRQAPGKERELVAAISLSDGSTYYADSVKGRFTISRDHAKNTVYLQMNILKPEDTAVYYCAARVQHYLATDDYWGQGTQVTVSS,low polyreactivity
7,QVQLVESGGGLVQAGGSLRLSCAASGSTSVYYAMGWYRQTPGKERELVAAINWNGGRTYYADSVKGRFTISRDNAKNTVYLQMNSLKPEDTAVYYCATDSGDGEGDYWGQGTQVTVSS,low polyreactivity
8,QVQLVESGGGLVQAGGSLRLICAASGSTFCRYAMGRDRQARGKEMELVAAISTRGGSTRYADSVKGRFTISRDYAKYTVYLLINRLKPEDTGVYYCDALGQGRTSATSFVDYEYWGQGTQVTVSS,high polyreactivity
9,QVQLVESGGGLVQAGGSLRLSCAASGFTFDRNAMGWYRQAPGKERGLVAAISSSGGRTYYADSVKGRFTISRDNAKNTVYLQMNSLKPEDTAVYYCAAVFFSRPSAYGSRYYWGQGTQVTVSS,high polyreactivity
10,QVQLVESGGVLVQAGGSLRLSCAASGRTFSPYAMGWARQAPGKDRELVAAITSRGASTYYADSVKGRFTISRDNAKNTVYLQMNSLKPEDTAVYYCNSGRTYRRLGDYWGQGTQVTVSS,high polyreactivity
11,QVQLVESGGGLVQAGGSLRLSCAASGIIFRTYAMGCYRQAPVKERELVAAITGSGGITYYADSVKGRFTISRDNAKNTVYLQMNSLKPEDTAVYYCAARGTRDGVQRYGYWGQGSQVTVSS,high polyreactivity
12,QVQLVESGGGLVQAGGSLRLSCAASGFTFRGYDMGWYRQAPGKERELVATISSGGRTYYADSVKGRFTISRDNAKNTVYLQMNSLKPEDTAVYYCAAPRFGRLAFDFWGQGSQVTVSS,low polyreactivity
13,QVQLVESGGCLVQAGGSLRLSCAASGNTFSTYTMGWYRQAPGKERELVAALTRSRGRTYYADSVKGRFTISRDTAKNTVYLQMNSLKPEDTAVYYCNAYTADLDDYWGQGNQVTVSS,high polyreactivity
14,QVQLVESGGGLVQAGGSLSLSCPASGRIFRWNAMGWYRQAPGKEREFVAAISWSGGSTYYADSVKGRFTISRDNAKNTVYLQMNSLKPEDTAVYYCNKVGYYGVGTSQEFDYWGQGTQVTVSS,high polyreactivity
15,HVELVDSGGGLVQAGGSLRLSCAASGSIFTDNTRGWFRQAPAKDRELVASISSGGRTYYADSVKGRFTISRDNAKNTVYLQMNSLKPEDTAVSYCAVSCWWKHNYWGQGTQVTVSS,high polyreactivity
16,QVQLVESGGGLVQAGGSLRLSSAASGSTLRRYAMGWYRQAPGKERELVAAISGSGDSTYYADSVKGRFTISRDNAKNTVYLQMNSLKPEDTAVYYCNAVYAFNGYDYWGQGTQVTVSS,low polyreactivity
17,QVQLVESGGGLVQAGGSLRLSCAASGLTFSYYAMGWYRPAPGKERELVAAITSSGGNTYYADSVKGRFTISRDYAKNTVYLQMNSLKPEDTAGDSCTARRYLRGYGYGYWGQGTQVTVSS,high polyreactivity
18,QVQLVESGGGLVQAGGTLRLSCAASGYTFYFYAMGWYRQAPGKEREFVAAIRSSGGRTYYADSVKGRFTISRDNAKNTVYLQMNCLKPEDTAVYSCAAAGYYYSVDGAGPRYDYWGQGTQVTGSS,low polyreactivity
19,QVQLVESGVGLVQAGGSLRLSCAASGSTFRGYAMGWYRQAPGKERELVAAISGIGGSTYYADSVKGRFTISRDNAKNTVYLQMNSLKPEDTAVYYCNAVSGDSGDYWGQGTQVTVSS,low polyreactivity
20,QVQLVESGGGLVQAGGSLRLSCAASGSTWYYAMGWYRQAPGKERELVATISSGSRTYYADSVKGRFTISRDNAKNTVYLQMNSLKPEDTAVYYCAARRRRFYYQYYRYDYWGQGTQVTVSS,high polyreactivity
21,QVQHVESGGGLVQAGGSLRLSCAASGSILRPNVMGWYRQAPGKDRELVARISSRGVNTYYADSVKGRFTISRDNAKNTVYLQMNSLKPEDTAVYYCNARRAQYYWNRSPKYDYWGQGTQVTVSP,high polyreactivity
22,QVQLVESGGGLVHAGGSLRLSCADSGRIFYANALGWSRQSPGRERELVAAISSGGSTYYADSVKGRFTSSRDNAKNTVYLQMNSLKPEDTAVYYCAVYTLKKVRPEYDYWGQGTQVTVSS,low polyreactivity
